Results on two molecules are retold here after patent publication US20240199757A1 (UNIVERSITY OF CHICAGO, published 2024).

The target in experiment [1] is T1, Full-length cynomolgus NT5E (recombinant) (cynomolgus, UniProt P21589 27-549 (human entry)).
T1 construct: also called cNT5E; cyno NT5E
T1 chain: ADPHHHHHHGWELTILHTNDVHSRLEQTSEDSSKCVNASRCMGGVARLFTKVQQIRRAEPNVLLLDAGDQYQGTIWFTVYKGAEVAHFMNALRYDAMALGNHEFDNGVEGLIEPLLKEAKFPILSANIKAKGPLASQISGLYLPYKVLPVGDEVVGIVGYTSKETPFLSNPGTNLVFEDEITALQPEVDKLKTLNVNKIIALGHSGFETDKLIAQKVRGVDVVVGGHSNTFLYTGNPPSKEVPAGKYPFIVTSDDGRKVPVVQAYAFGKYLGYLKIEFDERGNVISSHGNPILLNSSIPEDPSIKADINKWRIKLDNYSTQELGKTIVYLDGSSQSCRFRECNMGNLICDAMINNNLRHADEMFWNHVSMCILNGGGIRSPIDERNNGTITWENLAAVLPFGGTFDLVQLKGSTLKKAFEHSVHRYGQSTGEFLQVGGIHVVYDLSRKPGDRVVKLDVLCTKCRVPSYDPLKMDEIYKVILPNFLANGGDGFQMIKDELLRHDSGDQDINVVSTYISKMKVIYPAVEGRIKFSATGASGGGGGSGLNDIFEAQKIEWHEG
The experiment can be described thus: SPR, His-captured NT5E, no ATP. The protocol:
All SPR experiments were performed at 25° C. using MASS-1 (Bruker) instrument. hNT5E, mNT5E and cNT5E were immobilized onto a nitrilotriacetic acid (NTA) sensor chip via His-tag. For kinetic experiments, after ligand immobilization, 2-fold serial dilutions of the Fabs were injected. After double-reference subtraction data were analyzed with BiaEvaluation (GE Healthcare) or Sierra Analyser (Bruker) software. The experiments were carried in buffers in presence and absence of 1 mM ATP to compare the kinetic parameters of the Fabs binding to closed and open form of NT5E.

The target of experiment [2] is T2, human NT5E expressed on MDA-MB-231 cells (human, UniProt P21589 27-549).
T2 sequence (looked up): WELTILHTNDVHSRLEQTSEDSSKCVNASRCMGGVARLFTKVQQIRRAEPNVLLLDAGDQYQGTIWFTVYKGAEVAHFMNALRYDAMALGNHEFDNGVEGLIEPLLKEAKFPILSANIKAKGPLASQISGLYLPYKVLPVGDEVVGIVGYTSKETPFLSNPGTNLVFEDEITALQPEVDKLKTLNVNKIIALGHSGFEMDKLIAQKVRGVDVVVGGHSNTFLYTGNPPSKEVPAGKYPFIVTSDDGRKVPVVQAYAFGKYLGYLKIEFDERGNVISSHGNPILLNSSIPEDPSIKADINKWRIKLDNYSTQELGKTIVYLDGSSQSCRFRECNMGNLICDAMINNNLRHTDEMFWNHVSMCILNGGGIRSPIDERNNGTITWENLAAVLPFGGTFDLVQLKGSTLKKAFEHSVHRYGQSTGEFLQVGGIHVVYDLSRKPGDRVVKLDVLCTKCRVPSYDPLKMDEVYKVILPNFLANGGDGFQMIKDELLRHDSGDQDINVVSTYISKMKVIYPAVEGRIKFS
The experiment can be described thus: cell-based or functional assay.

Experiment [3] addresses T3, Full-length murine NT5E (recombinant) (murine, UniProt Q61503 29-552).
T3 construct: also called mNT5E
T3 sequence: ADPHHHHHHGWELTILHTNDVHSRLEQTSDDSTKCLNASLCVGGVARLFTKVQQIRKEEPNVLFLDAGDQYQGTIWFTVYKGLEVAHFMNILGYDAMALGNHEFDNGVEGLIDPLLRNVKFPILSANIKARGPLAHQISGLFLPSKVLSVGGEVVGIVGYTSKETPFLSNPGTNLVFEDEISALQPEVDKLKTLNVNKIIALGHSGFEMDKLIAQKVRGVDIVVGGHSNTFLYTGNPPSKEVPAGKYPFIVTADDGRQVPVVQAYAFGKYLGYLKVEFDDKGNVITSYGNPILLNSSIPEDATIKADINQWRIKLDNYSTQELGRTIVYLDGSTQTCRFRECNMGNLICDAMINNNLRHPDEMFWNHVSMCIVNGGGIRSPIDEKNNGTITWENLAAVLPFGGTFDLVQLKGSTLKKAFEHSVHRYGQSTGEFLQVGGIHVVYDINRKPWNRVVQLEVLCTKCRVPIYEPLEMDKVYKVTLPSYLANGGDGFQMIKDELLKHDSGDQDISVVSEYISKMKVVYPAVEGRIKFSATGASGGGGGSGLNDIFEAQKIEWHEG
The experiment can be described thus: ELISA, biotinylated NT5E on neutravidin plate, 1 mM ATP. The protocol:
(B) Protein ELISA: Protein-based multipoint ELISA was performed to estimate the affinity of the generated Fabs and IgGs to NT5E. The binding of the Fabs and IgGs to the closed form of NT5E were determined in ELISA buffer (HBST) supplemented with 10 μM zinc chloride and 1 mM ATP while the binding of the same to open form of NT5E were determined in ELISA buffer (HBST) without any cofactors. A fixed concentration of the immobilized target (50 nM) on ELISA plate was incubated with 3-fold serial dilutions of the purified Fabs and IgGs starting from 3 μM and 1 μM respectively for 15 min. The plates were washed and were subsequently incubated with a secondary HRP-conjugated anti-protein L monoclonal antibody (#32420, ThermoFisher, 1:6000 dilution). As with phage ELISA, the plates were again washed, developed with TMB substrate and quenched with 1.0 M HCl, and absorbance (Abs450) was determined. To determine the affinity (EC50), the data were fitted with a non-linear, 4-parameter logistic curve in OriginLab.
(In general: In an ELISA, binding on a coated surface is turned into a signal by an enzyme label.)

B1: 1789 Fab (Fab, V domains shown)
VH: EVQLVESGGGLVQPGGSLRLSCAASGFNVSYSSIHWVRQAPGKGLEWVASISSSSGYTYYADSVKGRFTISADTSKNTAYLQMNSLRAEDTAVYYCARNYWGWYPFYYFAFDYWGQGTLVTV
VL: DIQMTQSPSSLSASVGDRVTITCRASQSVSSAVAWYQQKPGKAPKLLIYSASSLYSGVPSRFSGSRSGTDFTLTISSLQPEDFATYYCQQGWDYPITFGQGTKVEIKR
B1: in experiment [1], the Kd was determined as 150 nM and the koff amounted to 0.02 s⁻¹. In addition, in experiment [2], the “IC50 of NT5E phosphate production on MDA-MB-231 cells, +500 µM ATP” value worked out at 122 nM.

B2: 1789 IgG (antibody, V domains shown)
VH: EVQLVESGGGLVQPGGSLRLSCAASGFNVSYSSIHWVRQAPGKGLEWVASISSSSGYTYYADSVKGRFTISADTSKNTAYLQMNSLRAEDTAVYYCARNYWGWYPFYYFAFDYWGQGTLVTVSS
VL: B1 VL
With B2, the EC50 in experiment [3] was 1.14 nM. In addition, the “IC50 of NT5E phosphate production on MDA-MB-231 cells, +500 µM ATP” value in experiment [2] was determined as 2.2 nM.

The Kd is the concentration at which binding is half-saturated. In general, koff refers to the first-order rate constant of dissociation. As a reminder, the EC50 is the concentration giving half of the maximal effect.
